Assay: soluble on expression in E. coli; label from the status in PepcDB or PDB records

| Sequence | soluble on expression in E. coli |
| --- | --- |
| MGSDKIHHHHHHLKNELAVIDIGSNSIRYVIFHPIDSGRYIEKINVKVVARLSAHIDAEGALDSVGIRLLCETLQRFHEIGITHHVEETICVATAAIRNASNRQDIVHAVEQETPFTMRVLSDEQEAYYGYFAIINSTFLTDGYSVDIGGGSMEVTLIENREMIAYHSFPFGAVTLTRQFLSGETMTSGEQKKLIKFLREQFDEIPWLKNKKLPLIGVGGSARNFVRIHQSTLDYPLHGIHQYQVRSKELGKLIDELEDKAPKQLMKVEGLSKDRVDIFLPALIAIHELALHIEAEQFVMSNYGLREGLVYEYDLHEQEQRRIENVREESLYQLESDYKVNRDRMNYLGTIAKSIYRQLVTLDIIPNRAADLRLLDSASRLLYCGQYINPDTRSNQTFYLLTNTDLKGMTHKDRLALALVSSYSSSKRIQQLLKPFKDWFTDKSIERFDLLGSILKLTEALDVTERRAVDSLEIALEKDKKDLRIILDTGDHDYGFEVEKAEKQKKHLERIIDRSIQFDNKGGGLT | not soluble |
| MSLQMKPEDILENIFYFRVCSYTEQIALVNHLEKFISENKDVKVVIVDSITFHFRQDYDDLAQRTRVLSEMALKFMKLAKKFSLAVVLLNQVTTKFSEGSFQLALALGDSWSHSCTNRVILYWNGDERYAYIDKSPSLPSASASYTVTSRGLRNSSEGHHHHHH | not soluble |
| MKLASPKPFTFEGGDRAVLLLHGFTGNSADVRMLGRFLEKKGYTCHAPIYKGHGVPPEELVHTGPEDWWQDVTEAYQLLKDKGFEKIAVVGLSLGGVFSLKLGYTVPVLGVVPMCAPMYIKSEETMYQGILAYAREYKKREQKSPEQIEQEMLEFQKTPMNTLKALQQLIADVRNNVDMIYVPTFVVQARHDEMINTDSANIIYNGVESTLKDIKWYEDSTHVITLDKQRDELHEDVYNFLEQLDW | not soluble |
| MNRILLYVHFNKYNKISAHVYYQLEQMRSLFSKIVFISNSKVSHEDLKRLKNHCLIDEFLQRKNKGFDFSAWHDGLITMGFDKLEEFDSLTIMNDTCFGPIWEMAPYFENFEEKKAVDFWGITNNRGTKAFKEHVQSYFMTFKNQVIQNKVFQQFWQSIIEYENVQEVIQHYETQLTSILLNEGFSYQTVFDTRKAESSFMPHPDFSYYNPTAILKHHVPFIKVKAIDANQHIAPYLLNLIRETTNYPIDLIVSHMSQISLPDAKYLLSQKYLNCQRLAKQTCQKVAVHLHVFYVDLLDEFLTAFEDWNFHYDLFITTDSDIKRKEIKEILQRKGKTADIRVTGNRGRDIYPMLLLKDKLSQYDYIGHFHTKKSKEADFWAGESWRKELIDMLVKPADSILSAFETDDIGIIIADIPSFFRFNKIVNAWNEHLIAQEMMSLWRKMDVKKQIDFQAMDTFVMSYGTFVWFKYDALKSLFDLELTQNDIPSEPLPQNSILHAIERLLVYIAWGNSYDFRILEHHHHHH | not soluble |
| MSLTKKELPLDGLIPYCEQCGDFRFPVFSVAVSMIVMNEGGDQVLLIKQYWKDSYILVAGYVNKGENAEDSCRRELMEELHLTAKSLHFNRSQYFAPSNTLMLNYTVTVDQAEKVSPNEEIDAWNWLSIDEARRQIRPNSLARTFLLEYLNKCKLHREGHHHHHH | soluble |
| MKTIYLHHPITTDEWTDVKKVMALGFFDGVHLGHQAVIKQAKQIAEEKGLQTAVLTFDPHPSVVLSNIRKQVKYLTPLEDKAEKMANLGVDIMYVVRFTTQFSELSPRAFVDNYLVALNVKHVVAGFDYSYGKKGEGKMTELENYANGRFEVTIVDKQTAASDKISSTNIRRAITEGELEEANQLLGYP | not soluble |
| MGSDKIHHHHHHMNYPFIYPGAIHMHTTYSDGSATFPHLIAAAREAGLRWVIVTDHDTLEGLPFAGWHDDVLVIVGHEITPDHNHFLALNVDTVISNELPPQQFIDEVYQRGGFGIIAHPDERVRNSFKDIYRWDDWTIDGPSQRTGRVVGLELWNFMSDWGEHLTERNKLALVLYPQLGLSGPTLATLAWWDRLNMVGRRTFGIGGVDAHGFKRKAPWGEIEVFPYPWIFRTLTNYLLLPEPLSSDATTATNQVYAALTAGRCYFVNRLDGDAPSIIFRLSRPGDLAEIGDTISLAGGPLLVEVDVGADAYARLIVNGEVMTSGIRRIRQTVTDDGVYRVEAYWGGKPWLFTNPIFVTAADAGREGSL | not soluble |
| PPPAPIPDLKVFEREGVQLNLSFIRPPENPALLLITITATNFSEGDVTHFICQAAVPKSLQLQLQAPSGNTVPARGGLPITQLFRILNPNKAPLRLKLRLTYDHFHQSVQEIFEVNNLPVESWQ | soluble |
| MIERYSREEMSNIWTDQNRYEAWLEVEILACEAWSELGHIPKADVQKIRQNAKVNVERAQEIEQETRHDVVAFTRQVSETLGEERKWVHYGLTSTDVVDTALSFVIKQANDIIEKDLERFIDVLAEKAKNYKYTLMMGRTHGVHAEPTTFGVKMALWYTEMQRNLQRFKQVREEIEVGKMSGAVGTFANIPPEIESYVCKHLGIGTAPVSTQTLQRDRHAYYIATLALIATSLEKFAVEIRNLQKTETREVEEAFAKGQKGSSAMPHKRNPIGSENITGISRVIRGYITTAYENVPLWHERDISHSSAERIMLPDVTIALDYALNRFTNIVDRLTVFEDNMRNNIDKTFGLIFSQRVLLALINKGMVREEAYDKVQPKAMISWETKTPFRELIEQDESITSVLTKEELDECFDPKHHLNQVDTIFERAGLA | soluble |
| AIAEAKTLGIATPRKPVLSVSARKLKDNAADWHNLILKWDSLSDKGFTTASSIANLKVSLLSKEKVELESSSPASMEEEEKTNLDYDKGLEALCEELQAILDGLTKIQMKMEKLSSTTKGICELENYHYREESSRPPLFHTWPTAFFYEVSRRLSEAYKKELLLKHTIGAELAHTADRNLSLTYLSMWLHQPYIESNSKLQLESMLLETGHRAL | soluble |
| SVTASRYYPQLMSLVGNVLRFLPAFVRMKQLISEHYVGAVMICDARIYSGSLLSPSYGWICDELMGGGGLHTMGTYIVDLLTHLTGRRAEKVHGLLKTFVRQNAAIRGIRHVTSDDFCFFQMLMGGGVCSTVTLNFNMPGAFVHEVMVVGSAGRLVARGADLYGQKNSATQEELLLRDSLAVGAGLPEQGPQDVPLLYLKGMVYMVQALRQSFQGQGDRRTWDRTPVSMAASFEDGLYMQSVVDAIKRSSRSGEWEAVEVLTEEPDTNQNLCEALQRNNL | soluble |
| MPMRLQKSTMCGLYAVLELAANPDRQVSAGDIADKYDISLNHLAKVLRALVRARLIESVRGPGGGYRFAGNPKRVTLLDIIALFEDTGLDLQEAASDDHEESRALHKVLRDIDEIAMTTLRSVSITSLLKVIDTERRKTERGPNGASARHSSAGRA | not soluble |
| MAHHHHHHMPGRPGSAEELYGLVCALQKQQQLTQVDLRAVQRRTEALRQELHCQEALIAEEQAKREELAAKHTPGDAELRLAEAHARGAARASADAAQELRGARRAFLQKCHAQVLSVGKGPTDPRRSGAPVAPSNCTPLSSAADESSSGSLSAVGLGPRREATLMPAAAVRQLLLLLREKLMRCIEVGSTAVPAPFVVASVVAPATEGGSSEQPRDCRPSDEQGAAAKVATSVMSPLTAAKSPHGPPSKSVTDACVRGASDDQSPPREKKSIGFAPECCFERVTAVPAANVNRGTRETWLTEGAPGACGSTAVVPPAANVTLDGDNHPSNACLRNDSRPRTQRFDGHFTVRVASRSATLVAEAAAMGAKRQRASEAAIAAQSSPPKAARADGDKGVSASRAPQGAGVAAAFPPAYTSNRDRLVAPVDLLSPRSAEARRNGSSGSGRRTVWTWTRGTSREP | not soluble |
| MAQGFKITYTDQACLLDIQDPQNKESQSFHYALVPRGVEAENIPADYTVIETPIRSVICMTSLQLSNFIKLEELDAVVGITSTRHLFNKKINDRLKDGSIHKIGIEGNFDNEVIMSVNPDLILISPFKRGGYDALKEVGIPLMPHLGYKEMTPLGQAEWIKFVGLLLGREDKANKQFAAIKKRYNELKELTGLEHHHHHH | not soluble |
| MSLAHPPRLNDDKPVIWTVSVTRLFELFRDISLEFDHLANITPIQLGFEKAVTYIRKKLANERCDAIIAAGSNGAYLKSRLSVPVILIKPSGYDVLQELAKAGKLTSSIGVVTYQETIPALVAFQKTFNLRLDQRSYITEEDARGQINELKANGTEAVVGAGLITDLAEEAGMTGIFIYSAATVRQAFSDALDMTRMSLRHNTHDATRNALRTRYVLEGHHHHHH | soluble |
| MNVETIREYCLSKKGVTESFPFDDVSLVMKVLDKMFALIDLEGANSISLKCDPERAIELREHYAGIEGAYHFNKKYWNGVYFDRDVDDKLIKELVDHSYEEVIKKFTKKLRAEYDALP | not soluble |
| MGSDKIHHHHHHMEKFDVIVVGGGPAGLSAAISAAQAGMKTAVIERGDYPGTKNVMGGVLYTEATNEVVPDFWKEAPLERPVIEQRYAFLSKDEILSAGYRDPAWGQPPYNAHTVLRVKFDRWLADQAVKAGVMIITETLVEDLLYHGDDVVGVRTGRAEGDLGAQVVILAEGANNFLACKAGLAKPLRPENMAVVVKEIIELPPEKIEDRFCLEPHEGATIELFGDSTDGMMGTSFIYTNKNSLSIGVGAMVHSMSEKGWSPNDLLENLKAKPYVKRLLQGGETKEYLAHLIPEGGYNAIPKLYRQGVMVVGDTAMFVNGLNREGSNLAMISGKIAGKVAAEAIQSGDLSAHGMSVYESRLRDSFVIKDLYKFRKLMPFIESNPHLLGQYPEILNQAARMYFTADGTPKAQVFSNIMDMMFKKRTKTGLVKDMFNAWRALK | not soluble |
| MQPQAFYRVVAEDFTAVDGIIRRQLTSRVPLVEKIGDYIISAGGKRLRPLLVLLAGKTLGYKGDDLCLLAATIEFLHTSTLLHDDVVDASGLRRGRSTANALWGNAPSVLVGDFLYARSFEMMVELGSMPVMRIISQATRVIAEGEVLQLSKVRDASTTEETYMEVIRGKTAMLFEASTHSAAALCQAGEEQSEALRRFGDYLGIAFQLVDDLLDYRGDAATLGKNVGDDLAEGKPTLPLIVTMRDGTEEQAALVRKAIQQGGSQDLESVCAAVEAAGALDYTANLARDYAARAIACLDTLPDNEYRSALVELSEFAVARTH | not soluble |
| MSLKAPGALRLLCFSDTHEKHLKIPPHQIVPCDICICAGDFTKFGDPAEVKKFKDWFIKIPARYRVLIAGNHETTFDVERYGRMVTQMRKIKSDLPRETAKSIVQTDGIIYLENESVEIEGLKIYGSPQTHYWEFWAFYYPDKDGPKVWAKIPHDTDILVCHTCPRSTIDLMRGQHVGCKSLANAIKEVQPSLVIYGHLHEGYGVAKIGKSVIANVSLTNLARKLANRPMIFDVSFKTPEIPRPLPKQPEETEIPKDEGHHHHHH | soluble |
| MKNNIRFDLSDYLIHFFRDVNLETGSHIYLPEHCGFNNQHHACFIDAKYLLRLSLRSHKIFSSWSYRNGQRTVYGDSPVVCFTDMPIAAYLETGVRRLERNEKIGLYAIVLPKEQMFNYGARPVIYGLDQHNNARCSQGRNGERILDETALPLIEQYRYVTYVPGKIDWTHEREWRWPYRGDINNFLNHIKEYGIPENIESTPGFDFRSSEISGAGIIVPFAEDIPTVAHDILTLIDRGVIGRNTFKFIIAVESLQSWTQLSEPGALLSCINDNTFEFESFFDLSASKVKNYADSINDYVSELYSKKDFLNDSYAMEFGNAWVWIHDNQSQVVRALLQAGMIKVNKEGRYLLDVNLASVDWPLRRKEAFASHVAGWLKHRFDIEAGRYSVRGKDDYDAIPSYETPLKDQHPFYNHTVNVDW | not soluble |
| MTTHQVKKSEAKRQHILDSGFHLVLRKGFVGVGLQEILKTSGVPKGSFYHYFESKEAFGCELLKHYISDYQIRLNQLWTTETSARDKLMNYLQCWVKDPATEQSWAESCLIVKMAAEVADLSEDMRLIMNDGVKRLIARMADLIRIGQQEGSIQTSVVPDVLAQVIYQMYLGAALLSKLYKHKAPLFQALESTKMMLDGCNHVQQDKNQ | soluble |

From the DeepSol protein solubility set
